{
  "source": "patent US20090149389A1",
  "about": "(PURDUE RESEARCH FOUNDATION, published 2009)",
  "assay_in_all_cases": "cell-based or functional assay",
  "key": {"[1]": {"biological_target": "CK2 (h) (human (h), UniProt P68400 1-391)", "sequence (P68400 whole entry)": "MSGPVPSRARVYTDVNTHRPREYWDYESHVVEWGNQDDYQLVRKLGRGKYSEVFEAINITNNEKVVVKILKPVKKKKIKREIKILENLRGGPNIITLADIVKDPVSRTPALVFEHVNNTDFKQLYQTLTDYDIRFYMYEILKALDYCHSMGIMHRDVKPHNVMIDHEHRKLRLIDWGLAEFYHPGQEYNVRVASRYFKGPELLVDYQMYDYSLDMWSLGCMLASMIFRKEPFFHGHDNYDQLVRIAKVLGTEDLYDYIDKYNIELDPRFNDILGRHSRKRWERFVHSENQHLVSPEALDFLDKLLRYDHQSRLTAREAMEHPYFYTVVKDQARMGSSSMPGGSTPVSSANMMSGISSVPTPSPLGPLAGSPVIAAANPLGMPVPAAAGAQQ"}, "[2]": {"biological_target": "MSK2 (h) (human (h), UniProt O75676 1-772, limits assumed)", "sequence (O75676 whole entry)": "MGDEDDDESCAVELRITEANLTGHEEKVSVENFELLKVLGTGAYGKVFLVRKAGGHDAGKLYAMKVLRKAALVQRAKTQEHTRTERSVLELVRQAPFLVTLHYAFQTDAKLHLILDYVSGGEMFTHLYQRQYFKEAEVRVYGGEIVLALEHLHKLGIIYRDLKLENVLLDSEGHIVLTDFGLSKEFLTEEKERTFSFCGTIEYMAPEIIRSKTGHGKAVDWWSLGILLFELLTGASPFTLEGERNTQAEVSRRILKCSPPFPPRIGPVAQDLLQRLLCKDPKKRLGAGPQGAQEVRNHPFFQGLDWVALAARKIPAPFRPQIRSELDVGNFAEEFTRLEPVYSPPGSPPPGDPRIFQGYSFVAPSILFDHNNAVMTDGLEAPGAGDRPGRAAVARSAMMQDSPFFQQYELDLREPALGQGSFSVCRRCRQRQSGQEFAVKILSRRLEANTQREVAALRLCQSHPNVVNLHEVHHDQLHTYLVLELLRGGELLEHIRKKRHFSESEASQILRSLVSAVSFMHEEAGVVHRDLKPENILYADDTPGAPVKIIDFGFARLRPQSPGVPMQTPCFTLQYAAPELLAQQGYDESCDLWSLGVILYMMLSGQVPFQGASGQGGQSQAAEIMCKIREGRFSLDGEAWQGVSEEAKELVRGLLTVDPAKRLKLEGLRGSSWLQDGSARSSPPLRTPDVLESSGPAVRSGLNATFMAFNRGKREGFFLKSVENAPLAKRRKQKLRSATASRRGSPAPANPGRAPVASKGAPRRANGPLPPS"}, "[3]": {"biological_target": "FGFR1 (h) (human (h), UniProt P11362 456-765, limits assumed)"}, "[4]": {"biological_target": "MSK1 (h) (human (h), UniProt O75582 1-802)"}, "[5]": {"biological_target": "CaMKI (h) (human (h), UniProt Q14012 1-370, limits assumed)", "sequence (Q14012 whole entry)": "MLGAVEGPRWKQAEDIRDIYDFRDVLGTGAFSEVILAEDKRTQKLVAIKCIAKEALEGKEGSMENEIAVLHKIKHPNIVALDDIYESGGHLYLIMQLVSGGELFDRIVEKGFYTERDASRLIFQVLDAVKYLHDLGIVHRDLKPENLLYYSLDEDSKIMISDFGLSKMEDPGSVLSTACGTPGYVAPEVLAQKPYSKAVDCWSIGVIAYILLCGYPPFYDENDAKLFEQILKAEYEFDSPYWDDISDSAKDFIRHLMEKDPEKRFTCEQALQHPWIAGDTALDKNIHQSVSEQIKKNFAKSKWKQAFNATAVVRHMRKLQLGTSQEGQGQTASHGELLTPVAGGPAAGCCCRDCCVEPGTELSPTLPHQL"}, "[6]": {"biological_target": "MAPKI (h) (human (h), UniProt P28482 1-360, limits assumed)", "sequence (P28482 whole entry)": "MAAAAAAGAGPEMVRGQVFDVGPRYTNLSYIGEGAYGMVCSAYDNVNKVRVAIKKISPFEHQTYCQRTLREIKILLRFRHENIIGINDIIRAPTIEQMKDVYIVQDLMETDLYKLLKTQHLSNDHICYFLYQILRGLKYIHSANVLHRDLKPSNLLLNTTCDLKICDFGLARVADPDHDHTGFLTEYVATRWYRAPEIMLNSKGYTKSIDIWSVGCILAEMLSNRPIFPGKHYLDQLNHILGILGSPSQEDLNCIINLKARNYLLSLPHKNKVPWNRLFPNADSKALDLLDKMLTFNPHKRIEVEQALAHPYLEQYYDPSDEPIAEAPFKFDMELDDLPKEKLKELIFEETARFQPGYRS"}, "[7]": {"biological_target": "CDKI/cyclinB (h) (human (h), UniProt P06493 1-297)", "sequence (P06493 whole entry)": "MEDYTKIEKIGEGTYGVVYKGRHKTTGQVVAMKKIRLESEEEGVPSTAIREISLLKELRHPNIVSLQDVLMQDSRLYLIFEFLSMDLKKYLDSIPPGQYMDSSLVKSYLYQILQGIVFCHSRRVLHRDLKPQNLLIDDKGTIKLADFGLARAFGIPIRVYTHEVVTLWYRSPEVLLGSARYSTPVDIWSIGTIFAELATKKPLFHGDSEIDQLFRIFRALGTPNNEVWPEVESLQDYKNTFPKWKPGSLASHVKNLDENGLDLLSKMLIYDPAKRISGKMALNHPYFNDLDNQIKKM"}, "[8]": {"biological_target": "AMPK (r) (rat (r), UniProt Q09137 1-552, limits assumed)"}, "[9]": {"biological_target": "MAPKAP-K3 (h) (human (h), UniProt Q16644 1-382, limits assumed)"}, "[10]": {"biological_target": "cKit (h) (human (h), UniProt P10721 544-976, limits assumed)", "sequence (P10721 544-976 limits assumed)": "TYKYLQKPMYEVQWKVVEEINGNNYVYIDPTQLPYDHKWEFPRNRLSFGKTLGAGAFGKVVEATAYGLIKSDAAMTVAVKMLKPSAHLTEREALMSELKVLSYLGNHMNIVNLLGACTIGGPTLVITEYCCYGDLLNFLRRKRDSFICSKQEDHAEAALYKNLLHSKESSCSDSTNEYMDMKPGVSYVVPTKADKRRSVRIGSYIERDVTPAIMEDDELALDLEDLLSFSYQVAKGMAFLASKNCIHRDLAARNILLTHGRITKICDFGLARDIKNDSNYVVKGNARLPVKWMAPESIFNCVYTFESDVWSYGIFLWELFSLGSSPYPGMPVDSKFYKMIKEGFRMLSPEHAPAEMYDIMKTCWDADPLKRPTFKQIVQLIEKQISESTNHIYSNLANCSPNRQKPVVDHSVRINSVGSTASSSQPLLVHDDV"}, "[11]": {"biological_target": "ROCK-1 (h) (human (h), UniProt Q13464 17-535, limits assumed)"}, "[12]": {"biological_target": "T1, MKK6 (h) (human (h), UniProt P52564 1-334, limits assumed)", "T1 sequence (looked up)": "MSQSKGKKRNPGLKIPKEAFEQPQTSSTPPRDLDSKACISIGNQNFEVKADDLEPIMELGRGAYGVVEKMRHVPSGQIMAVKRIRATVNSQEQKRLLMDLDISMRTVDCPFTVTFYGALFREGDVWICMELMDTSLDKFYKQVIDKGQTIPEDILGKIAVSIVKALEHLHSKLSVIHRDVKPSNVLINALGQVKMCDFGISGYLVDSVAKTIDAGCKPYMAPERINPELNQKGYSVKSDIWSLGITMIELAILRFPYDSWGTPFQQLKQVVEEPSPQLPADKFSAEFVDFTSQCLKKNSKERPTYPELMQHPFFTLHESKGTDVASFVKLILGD"}, "[13]": {"biological_target": "BTK (h) (human (h), UniProt Q06187 1-659)"}, "[14]": {"biological_target": "PKCδ (h) (human (h), UniProt Q05655 1-676)"}, "[15]": {"biological_target": "Rsk2 (h) (human (h), UniProt P51812 1-740)", "sequence (P51812 whole entry)": "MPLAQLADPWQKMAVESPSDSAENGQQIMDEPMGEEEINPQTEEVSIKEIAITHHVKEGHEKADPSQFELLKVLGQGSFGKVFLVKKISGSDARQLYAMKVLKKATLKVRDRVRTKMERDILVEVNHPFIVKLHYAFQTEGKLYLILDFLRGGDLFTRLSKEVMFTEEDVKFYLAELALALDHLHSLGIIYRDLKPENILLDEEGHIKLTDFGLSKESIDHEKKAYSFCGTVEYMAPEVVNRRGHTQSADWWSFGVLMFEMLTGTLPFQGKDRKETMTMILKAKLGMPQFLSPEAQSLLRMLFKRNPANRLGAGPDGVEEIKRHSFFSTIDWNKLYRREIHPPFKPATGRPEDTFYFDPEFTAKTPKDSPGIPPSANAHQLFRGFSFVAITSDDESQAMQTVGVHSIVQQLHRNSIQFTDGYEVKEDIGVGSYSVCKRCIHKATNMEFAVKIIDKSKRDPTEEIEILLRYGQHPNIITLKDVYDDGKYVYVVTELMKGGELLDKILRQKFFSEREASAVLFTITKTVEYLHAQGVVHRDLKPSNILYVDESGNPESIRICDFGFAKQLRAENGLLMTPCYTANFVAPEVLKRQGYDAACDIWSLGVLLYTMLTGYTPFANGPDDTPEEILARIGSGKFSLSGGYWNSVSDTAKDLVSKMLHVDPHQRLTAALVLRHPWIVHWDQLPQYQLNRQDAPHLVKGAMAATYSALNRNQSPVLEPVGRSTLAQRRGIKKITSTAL"}, "[16]": {"biological_target": "Pim-1 (h) (human (h), UniProt P11309 1-313)"}, "[17]": {"biological_target": "T2, Ret (h) (human (h), UniProt P07949 658-1114, limits assumed)", "T2 sequence (looked up)": "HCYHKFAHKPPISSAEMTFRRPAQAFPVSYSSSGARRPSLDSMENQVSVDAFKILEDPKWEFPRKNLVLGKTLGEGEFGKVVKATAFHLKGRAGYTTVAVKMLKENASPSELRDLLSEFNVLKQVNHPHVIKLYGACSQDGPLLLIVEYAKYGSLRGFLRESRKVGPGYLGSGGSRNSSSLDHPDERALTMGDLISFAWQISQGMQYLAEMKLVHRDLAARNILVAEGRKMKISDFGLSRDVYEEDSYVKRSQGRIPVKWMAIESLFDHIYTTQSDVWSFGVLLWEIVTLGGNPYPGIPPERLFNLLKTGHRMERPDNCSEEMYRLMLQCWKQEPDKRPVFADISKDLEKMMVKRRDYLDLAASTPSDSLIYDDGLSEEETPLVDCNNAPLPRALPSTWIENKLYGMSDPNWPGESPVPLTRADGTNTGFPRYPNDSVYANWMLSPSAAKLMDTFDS"}, "[18]": {"biological_target": "ASK1 (h) (human (h), UniProt Q99683 649-946, limits assumed)"}, "[19]": {"biological_target": "JAK3 (h) (human (h), UniProt P52333 781-1124, limits assumed)", "sequence (P52333 781-1124 limits assumed)": "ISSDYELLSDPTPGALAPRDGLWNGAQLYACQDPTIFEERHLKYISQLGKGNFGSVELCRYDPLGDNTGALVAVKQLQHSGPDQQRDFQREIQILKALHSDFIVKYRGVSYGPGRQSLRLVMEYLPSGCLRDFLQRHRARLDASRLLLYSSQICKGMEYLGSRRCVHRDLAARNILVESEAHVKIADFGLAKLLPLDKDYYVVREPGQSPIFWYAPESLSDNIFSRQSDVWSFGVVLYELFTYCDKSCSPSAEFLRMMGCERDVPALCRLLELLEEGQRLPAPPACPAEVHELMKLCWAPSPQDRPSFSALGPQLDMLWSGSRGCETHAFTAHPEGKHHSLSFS"}, "[20]": {"biological_target": "GSK3β (h) (human (h), UniProt P49841 1-420)"}, "[21]": {"biological_target": "PKA (h) (human (h), UniProt P17612 1-351)"}, "[22]": {"biological_target": "KDR (tl) (UniProt P35968 790-1356, limits assumed)"}, "[23]": {"biological_target": "SAPK2 a (h) (human (h), UniProt Q16539 1-360)"}, "[24]": {"biological_target": "JNK1α1 (h) (human (h), UniProt P45983-2 1-384)", "sequence (P45983 other isoform, or with tags, fused parts or gaps limits assumed)": "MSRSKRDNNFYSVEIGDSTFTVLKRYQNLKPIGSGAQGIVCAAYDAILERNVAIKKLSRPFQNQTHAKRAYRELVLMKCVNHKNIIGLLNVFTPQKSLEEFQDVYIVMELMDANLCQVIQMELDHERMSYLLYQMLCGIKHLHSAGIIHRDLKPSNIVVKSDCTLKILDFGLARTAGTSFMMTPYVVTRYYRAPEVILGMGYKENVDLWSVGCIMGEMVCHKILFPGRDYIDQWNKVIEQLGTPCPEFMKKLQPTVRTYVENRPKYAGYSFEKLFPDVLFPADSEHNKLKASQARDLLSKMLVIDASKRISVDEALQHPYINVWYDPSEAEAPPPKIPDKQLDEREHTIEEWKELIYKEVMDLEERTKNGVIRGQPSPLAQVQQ"}, "[25]": {"biological_target": "TrkA (h) (human (h), UniProt P04629 441-796, limits assumed)"}, "[26]": {"biological_target": "IGF-IR (h) (human (h), UniProt P08069 959-1367, limits assumed)"}, "[27]": {"biological_target": "Lck (h) (human (h), UniProt P06239 1-509)", "sequence (P06239 whole entry)": "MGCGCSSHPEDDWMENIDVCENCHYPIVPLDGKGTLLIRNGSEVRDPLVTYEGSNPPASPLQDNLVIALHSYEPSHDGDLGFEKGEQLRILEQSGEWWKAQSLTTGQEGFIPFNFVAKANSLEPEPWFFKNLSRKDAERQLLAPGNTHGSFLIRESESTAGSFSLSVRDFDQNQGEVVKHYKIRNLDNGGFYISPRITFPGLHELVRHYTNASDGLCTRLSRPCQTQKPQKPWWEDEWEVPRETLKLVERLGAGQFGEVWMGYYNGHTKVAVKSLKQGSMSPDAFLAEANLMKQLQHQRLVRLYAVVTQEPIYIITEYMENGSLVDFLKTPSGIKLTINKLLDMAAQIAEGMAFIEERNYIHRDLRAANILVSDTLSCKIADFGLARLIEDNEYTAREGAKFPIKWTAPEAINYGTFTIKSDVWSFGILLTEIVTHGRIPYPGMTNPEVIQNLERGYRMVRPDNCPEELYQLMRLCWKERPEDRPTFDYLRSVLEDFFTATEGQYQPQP"}, "[28]": {"biological_target": "Tie2 (h) (human (h), UniProt Q02763 771-1124, limits assumed)", "sequence (Q02763 771-1124 limits assumed)": "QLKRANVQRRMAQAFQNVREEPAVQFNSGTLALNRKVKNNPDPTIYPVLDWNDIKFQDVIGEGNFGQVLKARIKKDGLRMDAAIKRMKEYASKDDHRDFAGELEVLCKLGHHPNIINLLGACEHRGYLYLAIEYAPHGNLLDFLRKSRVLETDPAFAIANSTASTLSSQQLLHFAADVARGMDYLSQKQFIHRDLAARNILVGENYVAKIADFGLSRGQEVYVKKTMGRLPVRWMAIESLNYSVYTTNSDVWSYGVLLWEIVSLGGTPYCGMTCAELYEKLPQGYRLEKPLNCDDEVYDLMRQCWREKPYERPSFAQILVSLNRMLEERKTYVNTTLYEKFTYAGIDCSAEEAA"}, "[29]": {"biological_target": "MAPKAP-K2 (h) (human (h), UniProt P49137 46-400, limits assumed)"}, "[30]": {"biological_target": "MLCK (h) (human (h))"}, "[31]": {"biological_target": "Abl (h) (human (h), UniProt P00519 27-1130, limits assumed)"}},
  "data": [
    {"binder": "KAFAKLAARLYRKALARQLGVAA", "values": [
      {"measurement": "Profile-1 @ = 100 µm (kinase profiler assay)", "setting": "[1]", "value": 79},
      {"measurement": "Profile-1 @ = 100 µm (kinase profiler assay)", "setting": "[2]", "value": 30},
      {"measurement": "Profile-1 @ = 100 µm (kinase profiler assay)", "setting": "[3]", "value": 35},
      {"measurement": "Profile-1 @ = 100 µm (kinase profiler assay)", "setting": "[4]", "value": 13},
      {"measurement": "Profile-1 @ = 100 µm (kinase profiler assay)", "setting": "[5]", "value": 0},
      {"measurement": "Profile-1 @ = 100 µm (kinase profiler assay)", "setting": "[6]", "value": 108},
      {"measurement": "Profile-1 @ = 100 µm (kinase profiler assay)", "setting": "[7]", "value": 55},
      {"measurement": "Profile-1 @ = 100 µm (kinase profiler assay)", "setting": "[8]", "value": 118},
      {"measurement": "Profile-1 @ = 100 µm (kinase profiler assay)", "setting": "[9]", "value": 17},
      {"measurement": "Profile-1 @ = 100 µm (kinase profiler assay)", "setting": "[10]", "value": 31},
      {"measurement": "Profile-1 @ = 100 µm (kinase profiler assay)", "setting": "[11]", "value": 29},
      {"measurement": "Profile-1 @ = 100 µm (kinase profiler assay)", "setting": "[12]", "value": 48},
      {"measurement": "Profile-1 @ = 100 µm (kinase profiler assay)", "setting": "[13]", "value": 16},
      {"measurement": "Profile-1 @ = 100 µm (kinase profiler assay)", "setting": "[14]", "value": 24},
      {"measurement": "Profile-1 @ = 100 µm (kinase profiler assay)", "setting": "[15]", "value": 6},
      {"measurement": "Profile-1 @ = 100 µm (kinase profiler assay)", "setting": "[16]", "value": 1},
      {"measurement": "Profile-1 @ = 100 µm (kinase profiler assay)", "setting": "[17]", "value": 117},
      {"measurement": "Profile-1 @ = 100 µm (kinase profiler assay)", "setting": "[18]", "value": 48},
      {"measurement": "Profile-1 @ = 100 µm (kinase profiler assay)", "setting": "[19]", "value": 91},
      {"measurement": "Profile-1 @ = 100 µm (kinase profiler assay)", "setting": "[20]", "value": 184},
      {"measurement": "Profile-1 @ = 100 µm (kinase profiler assay)", "setting": "[21]", "value": 103},
      {"measurement": "Profile-1 @ = 100 µm (kinase profiler assay)", "setting": "[22]", "value": 56},
      {"measurement": "Profile-1 @ = 100 µm (kinase profiler assay)", "setting": "[23]", "value": 59},
      {"measurement": "Profile-1 @ = 100 µm (kinase profiler assay)", "setting": "[24]", "value": 92},
      {"measurement": "Profile-1 @ = 100 µm (kinase profiler assay)", "setting": "[25]", "value": 16},
      {"measurement": "Profile-1 @ = 100 µm (kinase profiler assay)", "setting": "[26]", "value": 76},
      {"measurement": "Profile-1 @ = 100 µm (kinase profiler assay)", "setting": "[27]", "value": 847},
      {"measurement": "Profile-1 @ = 100 µm (kinase profiler assay)", "setting": "[28]", "value": 8},
      {"measurement": "Profile-1 @ = 100 µm (kinase profiler assay)", "setting": "[29]", "value": 8},
      {"measurement": "Profile-1 @ = 100 µm (kinase profiler assay)", "setting": "[30]", "value": 2},
      {"measurement": "Profile-1 @ = 100 µm (kinase profiler assay)", "setting": "[31]", "value": 55}
    ]}
  ]
}
